{"source": "patent US20130122008A1", "about": "“Anti-IL 1- ß Antibody Combination Therapy” (NOVARTIS AG, priority 2009, published 2013)", "format_in_all_cases": "in vivo, human", "key": {"[1]": {"test_system": "patients with type 2 diabetes mellitus (T2DM)", "assay": "Plasma glucose (fasting and OGTT) in clinical study of ACZ885 in T2DM patients on metformin", "protocol": "The glucose assay is a hexokinase enzymatic method. Hexokinase catalyzes the phosphorylation of glucose with adenosine triphosphate. The glucose-6-phosphate is then oxidized to 6-phosphogluconate in the presence of NAD by the enzyme glucose-6-phosphate dehydrogenase. The amount of NADPH formed during the reaction is equivalent to the amount of D-glucose in the specimen and is measured photometrically by the increase in absorbance. The method has an inter-assay precision of 5.1-6.2% CV, and an intra-assay precision of 1.7-2.5% (determined by assaying 50 replicate assays of a sample then evaluating the coefficient of variation). The method is specific for glucose; no other carbohydrate is oxidized. A multi center, randomized, double blind, placebo-controlled, dose escalation study of the safety, tolerability, pharmacokinetics and pharmacodynamics of ACZ885 administered intravenously to patients with type 2 diabetes mellitus. The aim of the study is to compare the pharmacokinetic and pharmacodynamic effects of five doses (i.v. administration) of ACZ885 with placebo in patients with type 2 diabetes mellitus (T2DM). […] OGTT was administered at Baseline, 4 and 12 wk post-dose. The subsequent cohorts were included in the evaluation of pharmacodynamic, pharmacokinetis, pharmacogenomics and pharmacogenetics. • Cohort 2 (n=90; 1:1=ACZ885:Plb): received a single dose of ACZ885 (10 mg/kg) or placebo. • Cohort 3 (n=96) received a single dose of ACZ885 0.1, 0.3, 1.5 mg/kg or placebo (1:1:1:1). • Cohort 4 (n=30; 2:1=ACZ885:P1b) received a single dose of ACZ885 (0.03 mg/kg) or placebo. The study was designed to follow the patients for 24 weeks (168 days) after the single intravenous (i.v.) administration. An analysis of covariance (ANCOVA) with treatment as the classification variable and baseline as the covariate will be used for the comparison of treatments with respect to these parameters."}, "[2]": {"test_system": "patients with type 2 diabetes mellitus (T2DM)", "assay": "C-peptide (OGTT) in clinical study of ACZ885 in T2DM patients on metformin", "details": "dose escalation, Week 4 post-dose, versus placebo", "text": "In the beta cells of the pancreas, the proinsulin molecule is cleaved to form insulin and C-Peptide. C-Peptide, a polypeptide consisting of 31 amino acids, is stored in the secretory granules of the beta cells and released into circulation in equimolar amounts with insulin. The determination of C-Peptide provides an assessment of endogenous insulin secretory reserves in patients with diabetes mellitus and is considered a more reliable indicator of insulin secretion than insulin itself. The ADVIA Centaur C-Peptide assay is a two-site sandwich immunoassay using direct chemiluminescent technology, which uses constant amounts of two antibodies. The first antibody, in the Lite Reagent, is a monoclonal mouse anti-C-Peptide antibody labeled with acridinium ester. The second antibody, in the Solid Phase, is a monoclonal mouse anti-C-Peptide antibody. Streptavidin in the Solid phase is covalently coupled. A direct relationship exists between the amount of C-Peptide present in the patient sample and the amount of relative light units (RLUs) detected by the system. The method has an inter-assay precision of 1.69-1.81% CV, and an intra-assay precision of 3.7-4.1% (determined by assaying 20 replicate assays of a sample then evaluating the coefficient of variation). Accuracy is evaluated by comparison with College of American Pathologists (CAP) Ligand. […]"}, "[3]": {"test_system": "patients with type 2 diabetes mellitus (T2DM)", "assay": "Proinsulin in clinical study of ACZ885 in T2DM patients on metformin", "details": "Week 4 post-dose, versus placebo", "protocol": "A multi center, randomized, double blind, placebo-controlled, dose escalation study of the safety, tolerability, pharmacokinetics and pharmacodynamics of ACZ885 administered intravenously to patients with type 2 diabetes mellitus. The aim of the study is to compare the pharmacokinetic and pharmacodynamic effects of five doses (i.v. administration) of ACZ885 with placebo in patients with type 2 diabetes mellitus (T2DM). […] OGTT was administered at Baseline, 4 and 12 wk post-dose. The subsequent cohorts were included in the evaluation of pharmacodynamic, pharmacokinetis, pharmacogenomics and pharmacogenetics. • Cohort 2 (n=90; 1:1=ACZ885:Plb): received a single dose of ACZ885 (10 mg/kg) or placebo. • Cohort 3 (n=96) received a single dose of ACZ885 0.1, 0.3, 1.5 mg/kg or placebo (1:1:1:1). • Cohort 4 (n=30; 2:1=ACZ885:P1b) received a single dose of ACZ885 (0.03 mg/kg) or placebo. The study was designed to follow the patients for 24 weeks (168 days) after the single intravenous (i.v.) administration. An analysis of covariance (ANCOVA) with treatment as the classification variable and baseline as the covariate will be used for the comparison of treatments with respect to these parameters."}}, "note": "“Also recorded” adds a separate entry of the source."}
{"molecule": "ACZ885: anti-IL1β antibody, also referred to as Canakinumab; variable domains shown in SEQ ID NO:1 (VH) and SEQ ID NO:2 (VL) (antibody, V domains shown, homo sapiens) VH: QVQLVESGGGVVQPGRSLRLSCAASGFTFSVYGMNWVRQAPGKGLEWVAIIWYDGDNQYYADSVKGRFTISRDNSKNTLYLQMNGLRAEDTAVYYCARDLRTGPFDYWGQGTLVTVSS VL: EIVLTQSPDFQSVTPKEKVTITCRASQSIGSSLHWYQQKPDQSPKLLIKYASQSFSGVPSRFSGSGSGTDFTLTINSLEAEDAAAYYCHQSSSLPFTFGPGTKVDIK", "values": [{"measurement": "OGTT glucose AUC0-4 h / post-prandial glucose", "setting": "[1]; dose escalation, Week 4 post-dose, versus placebo", "result": "Positive trends consistent with dose escalation; also recorded: positive trend at Week 4 post-dose, albeit not statistically significant"}, {"measurement": "postprandial glucose (OGTT) compared to placebo", "setting": "[1]; single dose 10 mg/kg, 4 weeks", "result": "significant reduction"}, {"measurement": "peak plasma glucose (PPG) following OGTT", "setting": "[1]; single i.v. dose 10 mg/kg, Week 4, versus placebo in change from baseline, 10 mg/kg", "result": "statistically significant; also recorded: reduction"}, {"measurement": "fasting plasma glucose (FPG)", "setting": "[1]; single i.v. dose 10 mg/kg, Week 4 post-dose, 10 mg/kg", "result": "decrease"}, {"measurement": "peak plasma glucose (PPG) following OGTT", "setting": "[1]; single i.v. dose 10 mg/kg, Week 12", "result": "maintained"}, {"measurement": "plasma AUC glucose following OGTT", "setting": "[1]; single i.v. dose 10 mg/kg, four weeks after treatment, on stable metformin", "result": "statistically significant decreased"}, {"measurement": "fasting plasma glucose (FPG), course of effect", "setting": "[1]; single i.v. dose 10 mg/kg, from Week 4 to Week 12", "result": "attenuated"}, {"measurement": "OGTT C-peptide AUC0-4 h", "setting": "[2]", "result": "Positive trends consistent with dose escalation; also recorded: positive trend at Week 4 post-dose, albeit not statistically significant"}, {"measurement": "proinsulin", "setting": "[3]", "result": "positive trend at Week 4 post-dose, albeit not statistically significant"}]}
